Results reported in patent publication US20130310305A1.

Legend:
[1] = target: plasminogen (purified; Molecular Innovations in the plasmin activity reactions); experiment: cell-based or functional assay
[2] = target: mouse plasminogen (endogenous, in descending aorta protein of LDLR-/- ApoB48-deficient mice) (mouse) (UniProt P20918); experiment: co-immunoprecipitation from pooled mouse descending aorta protein, densitometry of the western blot
Sequence of UniProt P20918 (P20918 20-812 limits assumed): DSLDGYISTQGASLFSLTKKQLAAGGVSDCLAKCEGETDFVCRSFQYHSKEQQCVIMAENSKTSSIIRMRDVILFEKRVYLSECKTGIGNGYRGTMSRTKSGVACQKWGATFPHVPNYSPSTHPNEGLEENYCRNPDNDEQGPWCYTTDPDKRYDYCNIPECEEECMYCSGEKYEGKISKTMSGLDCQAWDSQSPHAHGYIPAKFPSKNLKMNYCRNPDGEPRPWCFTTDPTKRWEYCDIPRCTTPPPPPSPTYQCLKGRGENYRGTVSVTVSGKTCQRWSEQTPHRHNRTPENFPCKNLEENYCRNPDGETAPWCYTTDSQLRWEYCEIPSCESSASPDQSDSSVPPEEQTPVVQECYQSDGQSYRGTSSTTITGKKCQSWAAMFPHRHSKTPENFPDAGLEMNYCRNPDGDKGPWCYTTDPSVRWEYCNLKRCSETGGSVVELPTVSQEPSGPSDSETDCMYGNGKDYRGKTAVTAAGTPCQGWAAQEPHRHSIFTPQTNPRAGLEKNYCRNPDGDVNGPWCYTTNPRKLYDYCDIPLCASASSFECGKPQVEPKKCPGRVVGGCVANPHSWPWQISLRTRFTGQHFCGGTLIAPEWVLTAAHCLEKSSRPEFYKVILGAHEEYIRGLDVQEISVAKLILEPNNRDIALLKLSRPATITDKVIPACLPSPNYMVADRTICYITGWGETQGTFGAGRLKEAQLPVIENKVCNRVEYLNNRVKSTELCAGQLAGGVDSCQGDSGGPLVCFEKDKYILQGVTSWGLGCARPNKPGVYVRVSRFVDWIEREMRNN

plasmin activity (chromozym assay); 50 nM PAI-1 pre-bound to plasminogen 1 h at 37 C before tPA was added (late) [1]	fold more plasminogen complexed with PAI-1 (rPAI-123-treated against saline-treated mice) [2]	Substance
0.00138 U/ml		glycosylated human PAI-1 (Molecular Innovations) (from UniProt P05121 24-402)
	1.6 fold	mouse PAI-1 (endogenous, in descending aorta protein of LDLR-/- ApoB48-deficient mice) (from UniProt P22777 23-402)
